Measurements reported in US20040214773.

Tests used:
[1] = target: human cathepsin B (UniProt P07858)
[2] = target: T1, human cathepsin K (UniProt P43235)
T1 sequence: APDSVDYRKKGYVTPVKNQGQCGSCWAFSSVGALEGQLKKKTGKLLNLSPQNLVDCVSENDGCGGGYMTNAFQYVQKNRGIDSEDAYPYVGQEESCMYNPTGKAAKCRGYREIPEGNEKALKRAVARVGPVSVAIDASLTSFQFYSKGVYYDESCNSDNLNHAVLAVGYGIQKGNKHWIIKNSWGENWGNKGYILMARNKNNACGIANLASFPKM

[3] = target: human cathepsin V (UniProt O60911)
[4] = target: T2, human granzyme A (UniProt P12544)
T2 sequence: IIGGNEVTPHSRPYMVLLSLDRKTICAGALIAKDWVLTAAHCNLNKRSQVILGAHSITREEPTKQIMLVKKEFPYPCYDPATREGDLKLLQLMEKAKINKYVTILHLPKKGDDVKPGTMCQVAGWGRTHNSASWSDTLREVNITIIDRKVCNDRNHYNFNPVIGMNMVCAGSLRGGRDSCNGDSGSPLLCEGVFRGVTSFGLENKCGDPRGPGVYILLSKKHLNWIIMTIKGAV

[5] = target: human granzyme B (UniProt P10144)
human granzyme B, sequence (P10144 21-247): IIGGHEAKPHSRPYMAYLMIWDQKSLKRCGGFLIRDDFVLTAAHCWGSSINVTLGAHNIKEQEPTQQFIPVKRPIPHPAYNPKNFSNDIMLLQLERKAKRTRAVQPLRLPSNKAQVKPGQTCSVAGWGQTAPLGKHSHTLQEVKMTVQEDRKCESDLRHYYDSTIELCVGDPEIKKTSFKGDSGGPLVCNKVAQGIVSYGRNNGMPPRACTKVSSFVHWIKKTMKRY

[6] = target: human elastase (UniProt P08246)
human elastase, sequence (P08246 30-247): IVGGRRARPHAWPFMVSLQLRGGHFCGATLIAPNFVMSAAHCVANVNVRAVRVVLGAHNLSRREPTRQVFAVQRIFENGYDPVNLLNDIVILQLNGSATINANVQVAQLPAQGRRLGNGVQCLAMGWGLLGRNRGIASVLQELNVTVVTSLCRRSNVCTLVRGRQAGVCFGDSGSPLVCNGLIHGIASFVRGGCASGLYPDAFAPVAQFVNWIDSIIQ

[7] = target: T3, human cathepsin H (UniProt P09668)
T3 sequence: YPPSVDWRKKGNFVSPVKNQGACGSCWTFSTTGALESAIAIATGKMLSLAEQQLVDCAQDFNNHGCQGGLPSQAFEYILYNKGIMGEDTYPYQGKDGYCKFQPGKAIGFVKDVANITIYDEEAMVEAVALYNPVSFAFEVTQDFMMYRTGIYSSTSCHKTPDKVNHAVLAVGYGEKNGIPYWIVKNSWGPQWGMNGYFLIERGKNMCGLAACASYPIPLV

[8] = target: T4, human cathepsin G (UniProt P08311)
T4 sequence: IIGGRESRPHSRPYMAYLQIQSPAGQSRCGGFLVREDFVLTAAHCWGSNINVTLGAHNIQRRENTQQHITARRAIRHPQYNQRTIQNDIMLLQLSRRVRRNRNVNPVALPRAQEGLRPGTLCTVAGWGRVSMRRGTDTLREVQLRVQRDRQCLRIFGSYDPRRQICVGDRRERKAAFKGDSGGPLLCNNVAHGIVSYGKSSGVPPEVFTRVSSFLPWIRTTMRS

[9] = target: human cathepsin L (UniProt P07711)
human cathepsin L, sequence (P07711 114-333): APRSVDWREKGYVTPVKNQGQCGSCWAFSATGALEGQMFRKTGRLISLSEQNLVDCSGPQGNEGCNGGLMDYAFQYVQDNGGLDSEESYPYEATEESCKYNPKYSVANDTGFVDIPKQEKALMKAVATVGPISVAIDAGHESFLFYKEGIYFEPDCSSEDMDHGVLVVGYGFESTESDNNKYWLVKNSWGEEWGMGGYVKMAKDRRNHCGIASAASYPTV

[10] = system: Spi2A-3xFLAG (murine serine protease inhibitor 2A with a C-terminal 3xFLAG epitope tag)

human cathepsin V, sequence (O60911 114-334): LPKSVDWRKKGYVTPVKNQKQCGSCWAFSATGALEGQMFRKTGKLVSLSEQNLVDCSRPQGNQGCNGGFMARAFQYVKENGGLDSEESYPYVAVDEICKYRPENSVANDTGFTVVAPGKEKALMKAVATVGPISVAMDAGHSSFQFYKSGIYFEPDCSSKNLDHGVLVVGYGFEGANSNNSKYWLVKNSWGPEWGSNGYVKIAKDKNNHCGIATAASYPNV

Substance	protease activity after incubation under the same conditions as with Spi2A [1]	protease activity after incubation under the same conditions as with Spi2A [2]	protease activity after incubation under the same conditions as with Spi2A [3]	protease activity after incubation under the same conditions as with Spi2A [4]	protease activity after incubation under the same conditions as with Spi2A [5]	protease activity after incubation under the same conditions as with Spi2A [6]	protease activity after incubation under the same conditions as with Spi2A [7]	protease activity after incubation under the same conditions as with Spi2A [8]	protease activity after incubation under the same conditions as with Spi2A [9]	continuous hydrolysis of the cathepsin B substrate (Z-FR)2-R110, 20 nM cathepsin B with 200 or 400 nM Spi2A [10]
alkaline phosphatase tagged with C-terminal 3xFLAG (Sigma-Aldrich)	had no effect on protease activity	had no effect on protease activity	had no effect on protease activity	had no effect on protease activity	had no effect on protease activity	had no effect on protease activity	had no effect on protease activity	had no effect on protease activity	had no effect on protease activity	–
human cathepsin B	–	–	–	–	–	–	–	–	–	The enzyme was completely inhibited, within the dead time of the measurement
